# Experimental data: patent US20180155451A1 (published 2018)
# B1: GpH7-A5/GpH7-B3 variant N325_19Q/GpL16-k0 (antibody, human IgG1, kappa)
# heavy 1: not shown
# heavy 2: not shown
# light: DIVMTQSPLSLPVTPGEPASISCQASESLVHSNRNTYLHWYLQKPGQSPQLLIYKVSNRFSGVPDRFSGSGSGTDFTLKISRVEAEDVGVYYCSQNTHVPPTFGQGTKVEIERTVAAPSVFIFPPSDEQLKSGTASVVCLLNNFYPREAKVQWKVDNALQSGNSQESVTEQDSKDSTYSLSSTLTLSKADYEKHKVYACEVTHQGLSSPVTKSFNRGEC
# notes: heterodimerized IgG1, one H chain mutated; also called He Ab
# B2: GpH7-A5/GpH7-B3 variant S298_11K/GpL16-k0 (antibody, human IgG1, kappa)
# heavy 1: not shown
# heavy 2: not shown
# light: B1 light
# notes: as for B1
# B3: GpH7-A5/GpH7-B3 variant S324_19Q/GpL16-k0 (antibody, human IgG1, kappa)
# heavy 1: not shown
# heavy 2: not shown
# light: B1 light
# notes: as for B1
# B4: GpH7-A5/GpH7-B3 variant S298_19Q/GpL16-k0 (antibody, human IgG1, kappa)
# heavy 1: not shown
# heavy 2: not shown
# light: B1 light
# notes: as for B1
# B5: GpH7-A5/GpH7-B3 variant Y300_07I/GpL16-k0 (antibody, human IgG1, kappa)
# heavy 1: not shown
# heavy 2: not shown
# light: B1 light
# notes: as for B1
# B6: GpH7-A5/GpH7-B3 variant S324_16H/GpL16-k0 (antibody, human IgG1, kappa)
# heavy 1: not shown
# heavy 2: not shown
# light: B1 light
# notes: as for B1
# B7: GpH7-A5/GpH7-B3 variant S298_15Y/GpL16-k0 (antibody, human IgG1, kappa)
# heavy 1: not shown
# heavy 2: not shown
# light: B1 light
# notes: as for B1
# B8: GpH7-A5/GpH7-B3 variant S324_10E/GpL16-k0 (antibody, human IgG1, kappa)
# heavy 1: not shown
# heavy 2: not shown
# light: B1 light
# notes: as for B1
# B9: GpH7-A5/GpH7-B3 variant S298_20W/GpL16-k0 (antibody, human IgG1, kappa)
# heavy 1: not shown
# heavy 2: not shown
# light: B1 light
# notes: as for B1
# B10: GpH7-A5/GpH7-B3 variant S324_11K/GpL16-k0 (antibody, human IgG1, kappa)
# heavy 1: not shown
# heavy 2: not shown
# light: B1 light
# notes: as for B1
# B11: GpH7-A5/GpH7-B3 variant S324_02A/GpL16-k0 (antibody, human IgG1, kappa)
# heavy 1: not shown
# heavy 2: not shown
# light: B1 light
# notes: as for B1
# B12: GpH7-A5/GpH7-B3 variant Y300_02A/GpL16-k0 (antibody, human IgG1, kappa)
# heavy 1: not shown
# heavy 2: not shown
# light: B1 light
# notes: as for B1
# B13: GpH7-A5/GpH7-B3 variant S298_16H/GpL16-k0 (antibody, human IgG1, kappa)
# heavy 1: not shown
# heavy 2: not shown
# light: B1 light
# notes: as for B1
# B14: GpH7-A5/GpH7-B3 variant S324_18N/GpL16-k0 (antibody, human IgG1, kappa)
# heavy 1: not shown
# heavy 2: not shown
# light: B1 light
# notes: as for B1
# B15: GpH7-A5/GpH7-B3 variant S324_12R/GpL16-k0 (antibody, human IgG1, kappa)
# heavy 1: not shown
# heavy 2: not shown
# light: B1 light
# notes: as for B1
# B16: GpH7-A5/GpH7-B3 variant S324_14T/GpL16-k0 (antibody, human IgG1, kappa)
# heavy 1: not shown
# heavy 2: not shown
# light: B1 light
# notes: as for B1
# B17: GpH7-A5/GpH7-B3 variant Y300_03V/GpL16-k0 (antibody, human IgG1, kappa)
# heavy 1: not shown
# heavy 2: not shown
# light: B1 light
# notes: as for B1
# B18: GpH7-A5/GpH7-B3 variant S324_09D/GpL16-k0 (antibody, human IgG1, kappa)
# heavy 1: not shown
# heavy 2: not shown
# light: B1 light
# notes: as for B1
# B19: GpH7-A5/GpH7-B3 variant S324_15Y/GpL16-k0 (antibody, human IgG1, kappa)
# heavy 1: not shown
# heavy 2: not shown
# light: B1 light
# notes: as for B1
# B20: GpH7-A5/GpH7-B3 variant S298_12R/GpL16-k0 (antibody, human IgG1, kappa)
# heavy 1: not shown
# heavy 2: not shown
# light: B1 light
# notes: as for B1
# B21: GpH7-A5/GpH7-B3 variant S298_14T/GpL16-k0 (antibody, human IgG1, kappa)
# heavy 1: not shown
# heavy 2: not shown
# light: B1 light
# notes: as for B1
# B22: GpH7-A5/GpH7-B3 variant S298_09D/GpL16-k0 (antibody, human IgG1, kappa)
# heavy 1: not shown
# heavy 2: not shown
# light: B1 light
# notes: as for B1
# B23: GpH7-A5/GpH7-B3 variant Y300_09D/GpL16-k0 (antibody, human IgG1, kappa)
# heavy 1: not shown
# heavy 2: not shown
# light: B1 light
# notes: as for B1
# B24: GpH7-A5/GpH7-B3 variant S324_20W/GpL16-k0 (antibody, human IgG1, kappa)
# heavy 1: not shown
# heavy 2: not shown
# light: B1 light
# notes: as for B1
# B25: GpH7-A5/GpH7-B3 variant Y300_11K/GpL16-k0 (antibody, human IgG1, kappa)
# heavy 1: not shown
# heavy 2: not shown
# light: B1 light
# notes: as for B1
# B26: GpH7-A5/GpH7-B3 variant Y300_06M/GpL16-k0 (antibody, human IgG1, kappa)
# heavy 1: not shown
# heavy 2: not shown
# light: B1 light
# notes: as for B1
# B27: GpH7-A5/GpH7-B3 variant S298_10E/GpL16-k0 (antibody, human IgG1, kappa)
# heavy 1: not shown
# heavy 2: not shown
# light: B1 light
# notes: as for B1
# B28: GpH7-A5/GpH7-B3 variant Y300_08L/GpL16-k0 (antibody, human IgG1, kappa)
# heavy 1: not shown
# heavy 2: not shown
# light: B1 light
# notes: as for B1
# B29: GpH7-A5/GpH7-B3 variant Y300_05P/GpL16-k0 (antibody, human IgG1, kappa)
# heavy 1: not shown
# heavy 2: not shown
# light: B1 light
# notes: as for B1
# B30: GpH7-A5/GpH7-B3 variant S298_18N/GpL16-k0 (antibody, human IgG1, kappa)
# heavy 1: not shown
# heavy 2: not shown
# light: B1 light
# notes: as for B1
# B31: GpH7-A5/GpH7-B3 variant S324_01G/GpL16-k0 (antibody, human IgG1, kappa)
# heavy 1: not shown
# heavy 2: not shown
# light: B1 light
# notes: as for B1
# Biological target: T1, FcγRIa (human, UniProt P12314 16-292)
# T1 construct: extracellular domain; also called FcgRI; FcgRIa
# Experiment: SPR (Biacore), relative to GpH7-A5/GpH7-B3/GpL16-k0 = 100
# Protocol: (§1) The heterodimerized antibodies He Abs in which one of the H chains was introduced with an alteration were assayed for their binding activities to each activating FcγR and inhibitory FcγR according to the method described in Example 4. […] The activating FcγRs in FIGS. 26, 27, 28, and 29 are FcγRIa, FcγRIIa (R), FcγRIIa (H), and FcγRIIIa, respectively.
# (§2) Analysis of interaction between objective antibody and the FcγR was carried out using Biacore T100 (GE Healthcare). HBS-EP+ (GE Healthcare) was used as the running buffer, and the measurement temperature was set to 25° C. Chips produced by immobilizing the antigen peptide by the amine coupling method to a Series S Sencor Chip CM5 (GE Healthcare), or alternatively, chips produced by allowing preliminarily biotinylated antigen peptides to interact with and immobilize onto a Series S Sensor Chip SA (certified) (GE Healthcare) were used. Antibodies of interest were captured onto an antigen peptide-immobilized chip, and allowed to interact to each FcγR diluted with running buffer. To regenerate and repeatedly use the chip, the antibodies captured on the chip were washed off by reacting 10 mM glycine-HCl, pH 1.5.
# T1 sequence (P12314 16-292): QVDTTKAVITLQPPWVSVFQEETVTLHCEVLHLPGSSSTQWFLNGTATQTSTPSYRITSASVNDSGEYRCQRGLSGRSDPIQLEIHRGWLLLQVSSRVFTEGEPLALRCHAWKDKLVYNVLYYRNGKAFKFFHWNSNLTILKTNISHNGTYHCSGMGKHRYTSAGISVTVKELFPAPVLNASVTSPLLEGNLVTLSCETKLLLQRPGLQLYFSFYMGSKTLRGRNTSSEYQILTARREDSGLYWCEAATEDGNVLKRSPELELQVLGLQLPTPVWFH
row,Binder,He/Con_1a (Ia binding)
1,B1,99.1 relative (control = 100)
2,B2,109 relative (control = 100)
3,B3,112 relative (control = 100)
4,B4,109 relative (control = 100)
5,B5,108 relative (control = 100)
6,B6,113 relative (control = 100)
7,B7,107 relative (control = 100)
8,B8,105 relative (control = 100)
9,B9,104 relative (control = 100)
10,B10,102 relative (control = 100)
11,B11,103 relative (control = 100)
12,B12,112 relative (control = 100)
13,B13,109 relative (control = 100)
14,B14,116 relative (control = 100)
15,B15,102 relative (control = 100)
16,B16,121 relative (control = 100)

row,Binder,He/Con_1a (Ia binding)
1,B17,117 relative (control = 100)
2,B18,104 relative (control = 100)
3,B19,114 relative (control = 100)
4,B20,109 relative (control = 100)
5,B21,107 relative (control = 100)
6,B22,106 relative (control = 100)
7,B23,112 relative (control = 100)
8,B24,114 relative (control = 100)
9,B25,107 relative (control = 100)
10,B26,112 relative (control = 100)
11,B27,108 relative (control = 100)
12,B28,113 relative (control = 100)
13,B29,60.2 relative (control = 100)
14,B30,108 relative (control = 100)
15,B31,98.8 relative (control = 100)

# Biological target: T2, FcγRIIb (human, UniProt P31994 43-217)
# T2 construct: extracellular domain; also called FcgRIIb; 2b
# T2 sequence (looked up): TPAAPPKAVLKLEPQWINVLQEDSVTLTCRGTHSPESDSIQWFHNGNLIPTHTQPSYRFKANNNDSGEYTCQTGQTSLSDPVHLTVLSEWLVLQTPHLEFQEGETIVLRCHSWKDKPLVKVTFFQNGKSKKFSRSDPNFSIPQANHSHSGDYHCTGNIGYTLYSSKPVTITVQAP
# Experiment: as above
# Protocol: as §1, §2
row,Binder,He/Con_2b (IIb binding)
1,B1,69.1 relative (control = 100)
2,B2,61.3 relative (control = 100)
3,B3,66.8 relative (control = 100)
4,B4,73.3 relative (control = 100)
5,B5,74.5 relative (control = 100)
6,B6,83.5 relative (control = 100)
7,B7,61.4 relative (control = 100)
8,B8,77.4 relative (control = 100)
9,B9,41.1 relative (control = 100)
10,B10,68.6 relative (control = 100)
11,B11,78.3 relative (control = 100)
12,B12,69.2 relative (control = 100)
13,B13,63.5 relative (control = 100)
14,B14,81.1 relative (control = 100)
15,B15,63.1 relative (control = 100)
16,B16,88.4 relative (control = 100)

row,Binder,He/Con_2b (IIb binding)
1,B17,73.9 relative (control = 100)
2,B18,85.8 relative (control = 100)
3,B19,88.2 relative (control = 100)
4,B20,57.8 relative (control = 100)
5,B21,77.9 relative (control = 100)
6,B22,48.3 relative (control = 100)
7,B23,93.2 relative (control = 100)
8,B24,87.5 relative (control = 100)
9,B25,51.6 relative (control = 100)
10,B26,84.3 relative (control = 100)
11,B27,47.6 relative (control = 100)
12,B28,73.6 relative (control = 100)
13,B29,7.3 relative (control = 100)
14,B30,48.1 relative (control = 100)
15,B31,81.1 relative (control = 100)

# Biological target: T1, FcγRIa
# Experiment: SPR (Biacore); He/Con_1a (FcgRIa) divided by He/Con_2b (FcgRIIb)
# Protocol: as §1, §2
row,Binder,Ia/IIb He_1a/2b
1,B1,1.43
2,B2,1.78
3,B3,1.68
4,B4,1.49
5,B5,1.45
6,B6,1.35
7,B7,1.75
8,B8,1.35
9,B9,2.53
10,B10,1.49
11,B11,1.31
12,B12,1.62
13,B13,1.71
14,B14,1.42
15,B15,1.61
16,B16,1.37

row,Binder,Ia/IIb He_1a/2b
1,B17,1.58
2,B18,1.21
3,B19,1.29
4,B20,1.89
5,B21,1.37
6,B22,2.19
7,B23,1.21
8,B24,1.31
9,B25,2.07
10,B26,1.33
11,B27,2.28
12,B28,1.54
13,B29,8.22
14,B30,2.25
15,B31,1.22
